In patent US20050142634A1, “Novel modulator of non-genomic activity of nuclear receptors (mnar) and uses thereof” (Wyeth, priority 2001, published 2005):

B1: mutant 10: MNAR mutant aa 595-962 (protein, listed as Homo sapiens)
chain: PPPLACALQAFSLGQREDSLEVSSFCSEALVTCAALTHPRVPPLQPMGPTCPTPAPVPPPEAPSPFRAPPFHPPGPMPSVGSMPSAGPMPSAGPMPSAGPVPSARPGPPTTANHLGLSVPGLVSVPPRLLPGPENHRAGSNEDPILAPSGTPPPTIPPDETFGGRVPRPAFVHYDKEEASDVEISLESDSDDSVVIVPEGLPPLPPPPPSGATPPPIAPTGPPTASPPVPAKEEPEELPAAPGPLPPPPPPPPPVPGPVTLPPPQLVPEGTPGGGGPPALEEDLTVININSSDEEEEEEEEGEEEEEEEEEEEEDFEEEEEDEEEYFEEEEEEEEEFEEEFEEEEGELEEEEEEEDEEEEEELEEVED
B2: mutant 11: MNAR mutant aa 595-887 (protein, listed as Homo sapiens)
chain: PPPLACALQAFSLGQREDSLEVSSFCSEALVTCAALTHPRVPPLQPMGPTCPTPAPVPPPEAPSPFRAPPFHPPGPMPSVGSMPSAGPMPSAGPMPSAGPVPSARPGPPTTANHLGLSVPGLVSVPPRLLPGPENHRAGSNEDPILAPSGTPPPTIPPDETFGGRVPRPAFVHYDKEEASDVEISLESDSDDSVVIVPEGLPPLPPPPPSGATPPPIAPTGPPTASPPVPAKEEPEELPAAPGPLPPPPPPPPPVPGPVTLPPPQLVPEGTPGGGGPPALEEDLTVININSSD
B3: mutant 9: MNAR mutant, C-terminal portion aa 595-1131 (protein, listed as Homo sapiens)
chain: PPPLACALQAFSLGQREDSLEVSSFCSEALVTCAALTHPRVPPLQPMGPTCPTPAPVPPPEAPSPFRAPPFHPPGPMPSVGSMPSAGPMPSAGPMPSAGPVPSARPGPPTTANHLGLSVPGLVSVPPRLLPGPENHRAGSNEDPILAPSGTPPPTIPPDETFGGRVPRPAFVHYDKEEASDVEISLESDSDDSVVIVPEGLPPLPPPPPSGATPPPIAPTGPPTASPPVPAKEEPEELPAAPGPLPPPPPPPPPVPGPVTLPPPQLVPEGTPGGGGPPALEEDLTVININSSDEEEEEEEEGEEEEEEEEEEEEDFEEEEEDEEEYFEEEEEEEEEFEEEFEEEEGELEEEEEEEDEEEEEELEEVEDLEFGTAGGEVEEGAPPPPTLPPALPPPESPPKVQPEPEPEPGLLLEVEEPGTEEERGADTAPTLAPEALPSQGEVEREGESPAAGPPPQELVEEEPSAPPTLLEEEPEDGSDKVQPPPETPAEEEMETETEAEALQEKEQDDTAAMLADFIDCPPDDEKPPPPSEPDS

tested on: ER; test: MNAR structural-functional analysis, ER-stimulated transcription in HepG2 cells; assay type: cell-based; conditions: MNAR deletion mutants transfected into HepG2 cells
Method: To delineate the regions of MNAR that are responsible for interaction with estrogen receptor and c-Src tyrosine kinase, we performed functional evaluation of MNAR deletion mutants (FIG. 12). A series of C-terminal truncations of MNAR was generated using specially designed oligonucleotides, by amplifying appropriate fragments and cloning them into appropriate expression vectors. These mutants were tested for their abilities to enhance ER-stimulated transcription when transfected into HepG2 cells.
At the C-terminus, MNAR contains a region rich in both proline and glutamic acid. To delineate the regions on MNAR responsible for interaction with estrogen receptors and c-src tyrosine kinase, a functional evaluation of MNAR deletion mutants was performed (FIG. 12). A series of C-terminal truncations of MNAR was generated using specially designed oligonucleotides, by amplifying appropriate fragments and cloning them into appropriate expression vectors. These mutants were tested for their abilities to enhance ER-stimulated transcription when transfected into HepG2 cells.

| Molecule | ability to enhance ER-stimulated transcription |
| --- | --- |
| B1 | inactive |
| B2 | inactive |
| B3 | inactive |
